Legend:
[1] = molecular target: H3K56ac-mononucleosome assembled with 35N35 DNA (Xenopus laevis); assay: pull-down
[2] = system: BAF complex, FLAG-DPF2 WT (293T) (human); assay: pull-down; details: histone H3K56ac (recombinant Xenopus laevis octamer)

“BAF complex containing DPF2 R350H (from UniProt Q92785;P51532)” showed a fold reduction of the preferential interaction against the WT complex [1] of 5 fold.

In the case of 35N35 mononucleosome, H3K56ac, the binding signal (normalized bound DPF2 (reference)) [2] is reported as 1.

In the case of “BAF complex containing DPF2 W369R (from UniProt Q92785;P51532)”, the fold reduction of the preferential interaction against the WT complex [1] is reported as 5 fold.

“BAF complex containing DPF2 C330W (from UniProt Q92785;P51532)” showed a fold reduction of the preferential interaction against the WT complex [1] of 5 fold.

Reference: publication PMC11544104
